According to patent US20220406376A1 (MacroGenics, published 2022):

T1: 5T4 on the surface of target cells (JIMT-1, SKOV-3) (UniProt Q13641 32-420, limits assumed)
T1 construct: whole, on cells
T1 sequence (looked up): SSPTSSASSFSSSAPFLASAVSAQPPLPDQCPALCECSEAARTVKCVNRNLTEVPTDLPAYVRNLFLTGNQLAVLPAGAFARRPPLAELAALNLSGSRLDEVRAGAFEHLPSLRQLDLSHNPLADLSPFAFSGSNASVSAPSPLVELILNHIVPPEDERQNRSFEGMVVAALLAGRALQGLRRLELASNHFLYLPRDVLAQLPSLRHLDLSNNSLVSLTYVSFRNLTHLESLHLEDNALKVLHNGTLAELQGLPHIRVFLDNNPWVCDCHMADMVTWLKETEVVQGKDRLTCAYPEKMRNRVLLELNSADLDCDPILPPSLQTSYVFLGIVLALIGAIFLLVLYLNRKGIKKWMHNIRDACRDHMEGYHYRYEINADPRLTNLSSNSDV


How the values were obtained:
[1] = target: T2, CD137 on the surface of cells (activated human T cells; engineered CHO cells) (human, UniProt Q07011 24-255); experiment: flow cytometry on activated pan T cells gated CD8+, anti-hFc APC MFI
T2 construct: whole, on cells; also called human CD137; cell surface expressed CD137
T2 sequence (Q07011 24-255, change not shown): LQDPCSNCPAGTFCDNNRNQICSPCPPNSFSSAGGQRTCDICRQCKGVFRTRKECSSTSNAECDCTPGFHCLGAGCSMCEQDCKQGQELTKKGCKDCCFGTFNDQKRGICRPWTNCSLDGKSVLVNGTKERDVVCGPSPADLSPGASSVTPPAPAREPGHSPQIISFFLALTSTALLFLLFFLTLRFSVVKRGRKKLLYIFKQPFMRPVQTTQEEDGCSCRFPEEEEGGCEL
Method: Three antibodies were selected for further study. For such evaluations, purified pan T-cells (see above) were stimulated with anti-CD3/CD28 beads (cells:beads=1:1) for 72 hours in the presence of IL-2 (100 U/mL). 100 μL of activated T cells (1.0×10⁶ cells/mL) and 100 μL of serially diluted (5- or 10-fold dilutions) test article (antibody or bispecific diabody) was added to each well of microtiter assay plate(s), mixed and incubated at RT for 45 min. The cells were washed with FACS Buffer and secondary antibody (anti-human-Fc region-APC) was then added to each well; mixed and incubated at RT for 30 min. Cells were then washed FACS Buffer and T cell surface marker antibodies (anti-CD4 labeled with V510, and anti-CD8 labeled with FITC) were then added to each well; mixed and incubated at RT for 30 min. Cells were washed and resuspended in 100 μL FACS Buffer and analyzed by flow cytometry (BD LSR Fortessa or FACSCanto 11) for cell event collection. Data analysis were performed via FloJo v10.
Chimeric antibodies having human IgG1 Fc regions and murine VH/VL domains were generated (designated: chCD137 MAB-1, chCD137 MAB-2, chCD137 MAB-3, chCD137 MAB-4 and chCD137 MAB-5, respectively), and were tested for their ability to bind to activated CD8⁺ T cells.

[2] = target: T3, extracellular portion of human CD137 fused to a histidine-containing peptide (human, UniProt Q07011 24-186); experiment: SPR (BIACORE); antibody captured on anti-human Fc; huCD137 25 and 100 nM; 1:1 Langmuir
T3 construct: extracellular domain; also called huCD137; His-tagged soluble human CD137
Method: Thus, an extracellular portion of human CD137 fused to a histidine-containing peptide (“huCD137”) was passed over a surface coated with immobilized antibody. Briefly, each test molecule was captured onto an F(ab)₂ goat-anti-human Fc-coated surface and then incubated in the presence of different concentrations (25 nM and 100 nM) of huCD137. The kinetics of binding were determined via BIACORE® analysis binding (normalized 1:1 Langmuir binding model).

[3] = target: T2, CD137 on the surface of cells …; experiment: flow cytometry on activated pan T cells (donor D46433, CD8 PE), anti-hFc APC MFI
[4] = target: T2, CD137 on the surface of cells …; experiment: flow cytometry on activated CD8+ T cells (donor D59788, CD8 FITC), anti-hFc APC MFI
[5] = target: T4, HER2/neu on the surface of target cells (N87, JIMT-1, MCF-7, MDA-MB231) (UniProt P04626 23-1255, limits assumed); experiment: flow cytometry on N87 cells, anti-hFc APC MFI
T4 construct: whole, on cells

[6] = target: T2, CD137 on the surface of cells …; experiment: flow cytometry on activated pan T cells (donor D46433, CD8 PE), anti-hFc APC MFI; remark: listed apart in the source
[7] = target: T1, 5T4 on the surface of target cells …; experiment: flow cytometry on JIMT-1 (5T4 hi) cells, anti-hFc APC MFI

Row | Binder | EC50 (read off the curve) [1] | Kd [2] | koff [2] | kon [2] | further results
1 | CD137 MAB-1 (antibody, V domains shown, also called urelumab; BMS-663513) VH: QVQLQQWGAGLLKPSETLSLTCAVYGGSFSGYYWSWIRQSPEKGLEWIGEINHGGYVTYNPSLESRVTISVDTSKNQFSLKLSSVTAADTAVYYCARDYGPGNYDWYFDLWGRGTLVTVSS VL: EIVLTQSPATLSLSPGERATLSCRASQSVSSYLAWYQQKPGQAPRLLIYDASNRATGIPARFSGSGSGTDFTLTISSLEPEDFAVYYCQQRSNWPPALTFGGGTKVEIK | ~5 ng/mL | – | – | – | –
2 | chCD137 MAB-5 (antibody, V domains shown) VH: QVQLKESGPGLVAPSQSLSITCTVSGFSLTSYDISWIRQPPGKGLEWLGVVWTGGGTNYNSAFMSRLSISKDNSKSQVFLKMNSLQTDDTAIYYCERVDYWGQGTSVTVSS VL: DVVMTQTPLSLPVSLGDQASISCRSSQSLVHSNGNTYLHWYLQKPGQSPKLLIYKVSNRFSGVPDRFSGSGSGTDFTLKISRVEAEDLGVYFCSQSTHVPWTFGGGTKLEIK | ~100 ng/mL | – | – | – | –
3 | chCD137 MAB-3 (antibody, V domains shown) VH: QVQLQQPGAELVRPGASVKLSCKASGYTFTSYWINWVKQRPGQGLEWIGNIYPSDSYTNYNQKFKDKATLTVDKSSSTAYMQLSSPTSEDSAVYYCTRDYGSSYSFDYWGQGTTLTVSS VL: DIQMTQTTSSLSASLGDRVTISCRPSQDISNYLNWYQQKPDGTVKLLIYYTSRLRSGVPSRFSGSGSGTDYSLTISNLEQEDIATYFCQQGDTLPYTFGGGTKLEIK | ~2 ng/mL | 23 nM | 0.02 s⁻¹ | 890000 M⁻¹ s⁻¹ | –
4 | chCD137 MAB-4 (antibody, V domains shown) VH: QVQLQQPGAELVRPGASVKLSCKASGYTFTSYWINWVKQRPGQGLEWIGNIYPSDSYTNYDQKFKDKATLTVDKSSSTAYMQLSSPTSEDSAVYYCTKSGEYGKIGYYAMDYWGQGTSVTVSS VL: DIQMTQTTSSLSASLGDRVTISCRASQDISNYLNWYQQKPDGTVKLLIYYTSRLHSGVPSRFSGSGSGTDYSLTISNLEQEDIATYFCQQGNTLPYTFGGGTKLEIK | ~20 ng/mL | 6.1 nM | 0.00092 s⁻¹ | 150000 M⁻¹ s⁻¹ | –
5 | TRIDENT-1 (bispecific antibody, human IgG1, kappa, L234A L235A, also called CD137×CD137×RSV control molecule; CD137×RSV control molecule) chain 1: DIQMTQSPSSLSASVGDRVTITCRPSQDISNYLNWYQQKPDKTVKLLIYYTSRLRSGVPSRFSGSGSGTDFTFTISSLQPEDIATYFCQQGDTLPYTFGQGTKLEIKGGGSGGGGQVQLVQSGAEVKKPGASVKVSCKASGYTFTSYWINWVKQAPGQGLEWIGNIYPSDSYTNYNQKFKDKATITADKSTSTAYMELSSLRSEDTAVYYCTRDYGSAYSMSTWGQGTTVTVSSASTKGEVAACEKEVAALEKEVAALEKEVAALEKGGGDKTHTCPPCPAPEAAGGPSVFLFPPKPKDTLMISRTPEVTCVVVDVSHEDPEVKFNWYVDGVEVHNAKTKPREEQYNSTYRVVSVLTVLHQDWLNGKEYKCKVSNKALPAPIEKTISKAKGQPREPQVYTLPPSREEMTKNQVSLWCLVKGFYPSDIAVEWESNGQPENNYKTTPPVLDSDGSFFLYSKLTVDKSRWQQGNVFSCSVMHEALHNHYTQKSLSLSPGK chain 2: DIQMTQSPSSLSASVGDRVTITCRPSQDISNYLNWYQQKPDKTVKLLIYYTSRLRSGVPSRFSGSGSGTDFTFTISSLQPEDIATYFCQQGDTLPYTFGQGTKLEIKGGGSGGGGQVQLVQSGAEVKKPGASVKVSCKASGYTFTSYWINWVKQAPGQGLEWIGNIYPSDSYTNYNQKFKDKATITADKSTSTAYMELSSLRSEDTAVYYCTRDYGSAYSMSTWGQGTTVTVSSASTKGKVAACKEKVAALKEKVAALKEKVAALKE heavy: QVTLRESGPALVKPTQTLTLTCTFSGFSLSTSGMSVGWIRQPPGKALEWLADIWWDDKKDYNPSLKSRLTISKDTSKNQVVLKVTNMDPADTATYYCARSMITNWYFDVWGAGTTVTVSSASTKGPSVFPLAPSSKSTSGGTAALGCLVKDYFPEPVTVSWNSGALTSGVHTFPAVLQSSGLYSLSSVVTVPSSSLGTQTYICNVNHKPSNTKVDKRVEPKSCDKTHTCPPCPAPEAAGGPSVFLFPPKPKDTLMISRTPEVTCVVVDVSHEDPEVKFNWYVDGVEVHNAKTKPREEQYNSTYRVVSVLTVLHQDWLNGKEYKCKVSNKALPAPIEKTISKAKGQPREPQVYTLPPSREEMTKNQVSLSCAVKGFYPSDIAVEWESNGQPENNYKTTPPVLDSDGSFFLVSKLTVDKSRWQQGNVFSCSVMHEALHNRYTQKSLSLSPGK light: DIQMTQSPSTLSASVGDRVTITCRASQSVGYMHWYQQKPGKAPKLLIYDTSKLASGVPSRFSGSGSGTEFTLTISSLQPDDFATYYCFQGSGYPFTFGGGTKLEIKRTVAAPSVFIFPPSDEQLKSGTASVVCLLNNFYPREAKVQWKVDNALQSGNSQESVTEQDSKDSTYSLSSTLTLSKADYEKHKVYACEVTHQGLSSPVTKSFNRGEC | – | – | – | – | EC50 (read off the curve) [3]: ~0.03 nM; EC50 (read off the curve) [4]: ~7 ng/mL; binding result [5]: no binding (tested: about 60 nM (last point)); EC50 (read off the curve) [6]: ~0.03 nM; binding result [7]: no binding (tested: 10 ug/mL)
